The test concerns PPIs identified as affected by the SH3 domain deletions. Kind of test: Liquid DHFR-PCA low-throughput validation of PPIs affected by SH3 deletion (Fig. S1D-E). It is filed as cell-based, Saccharomyces cerevisiae. As to conditions: label = prey, liquid DHFR-PCA, prey _1 = lost, _2 = gained in screen. In a few lines:
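Growth at 30 °C was tracked by OD each 15 min over 72 h in agar-free PCA selection medium, starting at 0.1 OD. Cells were diploids selected after mating, first cultured 48 h with NAT and HPH in synthetic complete MSG medium, pH 6.0.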

B1: YCR030C_1 (protein, UniProt P25623 1-870, looked up)
Suppressor of yeast profilin …: MTEQRTKYADSILTTKSPYEATETIRIRLSQVKLLNKDFYLLFKELANLKRNYAQQLRKIIAENEDITKILNAQMIESNVLTPQEMSAFRFNSLGELRNVWDTVIEELKSDLKSSTEYYNTLDQQVVRELKESVENNTSWRESKDLHSKLSKNAASIEHYSKNNENSSHLEEARRQWDQQSPYLFELFETIDYNRLDTLKNCMLRFQTSFSDYLLNTTKECETVMTKFLAFEPQSEIDRFAKDASQYNFQLSSSSKEVVPNNASPASATGARPVSVSNGAANTEREKKSPQKDKRKSAFGNIGHRLASASSSLTHNDLMNNEFSDSTNNSSLKSKKSSHTLRSKVGSIFGRNKTKNKRQQQSSSNSHIQASITETPNNSSTRVSSTATSSIYQKQRRPTYSSSKSNNWTPGEASDTPPLPPHATPKNVDAPVTADTPPAQTFTPSEVPPSTPQQSSPPTAKEPDSSNLPKTVPISISQPPLQPQSKTKPLPVEPASPSISLPTATVDNQPSGQVDSRPLHIRAPALPPSRKQNFIHNRDSQLYDSLPNHGSGATPTSSSLSSIPQERPVSTLSSQITGELRELNPQATGSSTSLVGQSLFQHSSLDTSQFGLNASIAEVLNASFKDGMLQNSQLIGEIALNYLPNSVMNSPLPIGINLRINNGAKFEKVILNQAFIERVAPEEFKVNPSFIDSRTLGAIKYSIKEPIAPIVIHPVWRFESHQASVVLTVKMSPSLPDEISQIVIEDLVVFVNIDGANATSALSKPQGSFSKEKKRITWRFKEPVVLTRNGEGQRLIARFITDGLAHESAKGVITKFTISETDNVALPHSGAGSGITLTCQELDENNPFGGEWLDVNTKRTLTTGNYHGLA
As to B1, the “Ratio (Deletedscore / WTscore)” value reads like this: (bait BEM1-1) 1.033; (bait BEM1-2) 0.5499; (bait MYO3) 0.7978; (bait MYO5) 0.5102; (bait RVS167) 0.6932.

B2: YNL243W_1 (protein, UniProt P33338 1-968, looked up)
Protein SLA2: MSRIDSDLQKALKKACSVEETAPKRKHVRACIVYTWDHQSSKAVFTTLKTLPLANDEVQLFKMLIVLHKIIQEGHPSALAEAIRDRDWIRSLGRVHSGGSSYSKLIREYVRYLVLKLDFHAHHRGFNNGTFEYEEYVSLVSVSDPDEGYETILDLMSLQDSLDEFSQIIFASIQSERRNTECKISALIPLIAESYGIYKFITSMLRAMHRQLNDAEGDAALQPLKERYELQHARLFEFYADCSSVKYLTTLVTIPKLPVDAPDVFLINDVDESKEIKFKKREPSVTPARTPARTPTPTPPVVAEPAISPRPVSQRTTSTPTGYLQTMPTGATTGMMIPTATGAANAIFPQATAQMQPDFWANQQAQFANEQNRLEQERVQQLQQQQAQQELFQQQLQKAQQDMMNMQLQQQNQHQNDLIALTNQYEKDQALLQQYDQRVQQLESEITTMDSTASKQLANKDEQLTALQDQLDVWERKYESLAKLYSQLRQEHLNLLPRFKKLQLKVNSAQESIQKKEQLEHKLKQKDLQMAELVKDRDRARLELERSINNAEADSAAATAAAETMTQDKMNPILDAILESGINTIQESVYNLDSPLSWSGPLTPPTFLLSLLESTSENATEFATSFNNLIVDGLAHGDQTEVIHCVSDFSTSMATLVTNSKAYAVTTLPQEQSDQILTLVKRCAREAQYFFEDLMSENLNQVGDEEKTDIVINANVDMQEKLQELSLAIEPLLNIQSVKSNKETNPHSELVATADKIVKSSEHLRVDVPKPLLSLALMIIDAVVALVKAAIQCQNEIATTTSIPLNQFYLKNSRWTEGLISAAKAVAGATNVLITTASKLITSEDNENTSPEQFIVASKEVAASTIQLVAASRVKTSIHSKAQDKLEHCSKDVTDACRSLGNHVMGMIEDDHSTSQQQQPLDFTSEHTLKTAEMEQQVEILKLEQSLSNARKRLGEIRRHAYYNQDDD
With B2, the “Ratio (Deletedscore / WTscore)” value amounted to 0.664 (bait BBC1); 1.137 (bait BEM1-1); 0.8469 (bait BEM1-2); 0.856 (bait BZZ1-1); 0.8741 (bait HOF1); 0.5927 (bait MYO3). Moreover, the “Ratio (Deletedscore / WTscore)” value (bait MYO5) was determined as 0.7315 and the “Ratio (Deletedscore / WTscore)” value (bait PIN3) is recorded as 1.05.

B3: YOR042W_1 (protein, UniProt Q08412 1-411, looked up)
Ubiquitin-binding protein CUE5: MEEKEGIKDSSLLEKSNVPESINEDISKTTDVDLNSDGKKDNDTSAKDGTPKVEEKVNKSSGIDEDEVVTPAEDAKEEEEEHPPLPARRKSEEEPSKENPILQELKDAFPNLEEKYIKAVIIASQGVLSPAFNALLFLSDPESGKDIELPTQPVRKNPEAPARRRQTQLEQDELLARQLDEQFNSSHSRRRNRDRATRSMHEQRRRRHNPNEREQHHEDSEEEDSWSQFVEKDLPELTDRAGRSLQDTANKVSNWISDAYRRNFASGNEQNDNQHGHQDQQEWEPEIVDLSQGGKNSRPQQPERRRFNSFGVQVGDDSLESHGITLHNEDGFEDDEDVPPQLPTRTKSGESTGKVVAETTYIDTPDTETKKKWQPLPPEPLDTTPTKVNAVSRNKKNPDEDEFLINSDDEM
As to B3, the “Ratio (Deletedscore / WTscore)” value (bait BBC1) was determined as 0.4675 and the “Ratio (Deletedscore / WTscore)” value (bait PIN3) was 0.5809.

B4: YBR102C_1 (protein, UniProt P38261 1-753, looked up)
Exocyst complex component …: MVEFSLKKARNNWKHVKKSASSPAKQKTPPSPAKPKQKTKKNPYSDLKDPATSYTLPTINARERSRVATSMQRRLSIHNTNYAPPTLDYSMPLPDMPNMIVPNDNVDSSHNNSSFTTENESVSSKGPSNSLNLSTADLSLNDSSYNKVPARSAMRNTVNPSGSNDPFNNSTSLRKMLANPHFNAKDFVHDKLGNASAITIDKFTSNLTDLSIQVQEEVKLNINKSYNEIMTVNNDLNVAMLELKRVRANINDLNEVLDQCTKIAEKRLQLQDQIDQERQGNFNNVESHSNSPALLPPLKAGQNGNLMRRDRSSVLILEKFWDTELDQLFKNVEGAQKFINSTKGRHILMNSANWMELNTTTGKPLQMVQIFILNDLVLIADKSRDKQNDFIVSQCYPLKDVTVTQEEFSTKRLLFKFSNSNSSLYECRDADECSRLLDVIRKAKDDLCDIFHVEEENSKRIRESFRYLQSTQQTPGRENNRSPNKNKRRSMGGSITPGRNVTGAMDQYLLQNLTLSMHSRPRSRDMSSTAQRLKFLDEGVEEIDIELARLRFESAVETLLDIESQLEDLSERISDEELMLLNLISLKIEQRREAISSKLSQSILSSNEIVHLKSGTENMIKLGLPEQALDLFLQNRSNFIQDLILQIGSVDNPTNYLTQLAVIRFQTIKKTVEDFQDIFKELGAKISSILVDWCSDEVDNHFKLIDKQLLNDEMLSPGSIKSSRKQIDGLKAVGLDFVYKLDEFIKKNSDKIR
In the case of B4, the “Ratio (Deletedscore / WTscore)” value (bait BEM1-1) was found to be 0.5987, the “Ratio (Deletedscore / WTscore)” value (bait BEM1-2) is listed as 0.6932 and the “Ratio (Deletedscore / WTscore)” value (bait RVS167) was found to be 0.8234.

B5: YER008C_1 (protein, UniProt P33332 1-1336, looked up)
Exocyst complex component SEC3: MRSSKSPFKRKSHSRETSHDENTSFFHKRTISGSSAHHSRNVSQGAVPSSAPPVSGGNYSHKRNVSRASNSSQTSNFLAEQYERDRKAIINCCFSRPDHKTGEPPNNYITHVRIIEDSKFPSSRPPPDSKLENKKKRLLILSAKPNNAKLIQIHKARENSDGSFQIGRTWQLTELVRVEKDLEISEGFILTMSKKYYWETNSAKERTVFIKSLITLYIQTFEGHVPELVNWDLSLFYLDERSYQRAVITNRPGSVSPIKSPTSNFTTNTTQSVGSVPFSAPTERTRRSETESVNPVSTPASVEYHAGMKSLNKAPYSSNSTLNEVNKRYELEQQQQQEEAELRRLEEQKRLQLQKENEMKRLEEERRIKQEERKRQMELEHQRQLEEEERKRQMELEAKKQMELKRQRQFEEEQRLKKERELLEIQRKQREQETAERLKKEEQEALAKKEEEEKSKRNKVDNESYTQEINGKVDNLLEDLNAVLAEETETTPTMQNGTYVPERSTARAHDQLKKPLNIAKVESLGGSDLNDSISLSDEIAGLNTSNLSGEDQDEKNDLSFEKGDEVRYSNNFEGEAPHVYHEVSIIQEEAPAVSQKLILPEENNESEALIESKEEIKTMENIDDEVLLEILTDINWSIEDDADSMIERIDLRLAETEYLFNQNLLSLQKIGPNIRPYEDKVNDECHRIIPTLSLFLMEMSNFSNDIENVESQDNGLQVESANKKLLWNTLDELLKTVSLDEISLNQLLECPIREKNLPWMENQLNLLLKAFQAIGSDGNEVEYNLREISGLKQRLQFYEKVTKIFLNRIVEEMQKKFSNIRGQDISHDQMIRILTTLLIFSPLILFCKEISQKSYQAIVENWNVSIQPVYMELWTKKISQLQGIDTNDEKMNELSLSQLLNEWDTFRKERKTNDINPVFKNSFSLLTECLQTMRQECIVYQNFVEVFFHISSKHNFEEYIKHFNDPDAPPILLDTVKVMQSDREAAVIETQLVSRIFQPIVTRLSSYFVELVKAEPTVAPALTFYLENEIKSLESSNHEFLLSAVTRMYTQIKQVWSDNVEEQVLHFERISNATTNGEILPGILDLPVGLKNSEDLFQFAKRSMDIKDTDEGYESIELMNSSFRKLSIAATRSITHKEVNSSINPNLSDTAALNNDYMETISLLVNSNWLTEMLSMLNFNKDGIFDTSLQNVKKVFDVEKESYASFLLRDTMPKLTAFVYGVSNIIENTNNVNMTNPSRWAAYSRQNLENILLAYTSHEIETLVKRLHTHMVNDFGYHQENAINNVLCDKLWSCIQGQTVSLYLKLYTVIDKHYRGTNIRFTKNDIISAFEEYKNA
With B5, the “Ratio (Deletedscore / WTscore)” value is 0.9745 (bait BEM1-1), 0.478 (bait BEM1-2), 0.7503 (bait LSB3) and 0.6394 (bait RVS167).

B6: YCR088W_1 (protein, UniProt P15891 2-592, looked up)
Actin-binding protein: ALEPIDYTTHSREIDAEYLKIVRGSDPDTTWLIISPNAKKEYEPESTGSSFHDFLQLFDETKVQYGLARVSPPGSDVEKIIIIGWCPDSAPLKTRASFAANFAAVANNLFKGYHVQVTARDEDDLDENELLMKISNAAGARYSIQTSSKQQGKASTPPVKKSFTPSKSPAPVSKKEPVKTPSPAPAAKISSRVNDNNDDDDWNEPELKERDFDQAPLKPNQSSYKPIGKIDLQKVIAEEKAKEDPRLVQKPTAAGSKIDPSSDIANLKNESKLKRDSEFNSFLGTTKPPSMTESSLKNDDDKVIKGFRNEKSPAQLWAERKAKQNSGNAETKAEAPKPEVPEDEPEGEPDVKDLKSKFEGLAASEKEEEEMENKFAPPPKKSEPTIISPKPFSKPQEPVKAEEAEQPKTDYKKIGNPLPGMHIEADNEEEPEENDDDWDDDEDEAAQPPLPSRNVASGAPVQKEEPEQEEIAPSLPSRNSIPAPKQEEAPEQAPEEEIEEEAEEAAPQLPSRSSAAPPPPPRRATPEKKPKENPWATAEYDYDAAEDNELTFVENDKIINIEFVDDDWWLGELEKDGSKGLFPSNYVSLGN
In the case of B6, the “Ratio (Deletedscore / WTscore)” value (bait BEM1-1) was 0.8735.

The values above are taken from paper PMC7954794, “Protein context shapes the specificity of SH3 domain-mediated interactions in vivo” (Nature Communications, 2021).
